Where two headings read alike, the source gives them in different places.

Substrate in data set [1]: Nc1ncnc2c1ncn2[C@@H]1O[C@H](COP(=O)(O)OP(=O)(O)OP(=O)(O)O)[C@@H](O)[C@H]1O
The data set can be described thus: NADH-coupled steady-state ATPase assay. The format is biochemical, Saccharomyces cerevisiae. As to conditions: low ionic strength (21 mM), 20 mM HEPES pH 7.2, 2 mM MgCl2, 7.5 mM KCl, 20% glycerol, 298 K, 25.0 °C. The source says:
NADH-coupled steady-state ATPase assay on Cin8-His (Cin8 motor domain)

The target of data set [2] is Pre-formed microtubule·Eg5 complex (bovine | human) (UniProt Q6B856). The experiment in a line: stopped-flow light scattering; 0.5–5 μM Cin8-His rapidly mixed with a pre-formed microtubule·Eg5 complex (0.5 μM Eg5, 0.5 μM microtubules), low ionic strength, 298 K; amplitudes fit to Equation 6, observed rates to Equation 8.
Data set [3] shares this target. The data set is described as above. This is another data set of the same source.
Data set [4] concerns the target Paclitaxel-stabilized microtubules (bovine brain αβ-tubulin) (bovine) (UniProt Q6B856). The experiment in a line: co-sedimentation; 0.5 μM Cin8-His, 0–2 μM microtubules, 1 mM ATP plus ATP regeneration system, high ionic strength (88 mM); fraction bound by NADH-coupled assay; apparent constants.
For data set [5] the target is unchanged. The experiment in a line: co-sedimentation; Cin8-His with microtubules, no added nucleotide, low ionic strength (21 mM), 298 K; Cin8 left in the supernatant measured by the NADH coupled ATPase assay; apparent constants.
For data set [6] the target is unchanged.
The target is the same in data set [7]. The data set can be described thus: co-sedimentation; Cin8-His with microtubules, no added nucleotide, high ionic strength (88 mM), 298 K; Cin8 left in the supernatant measured by the NADH coupled ATPase assay; apparent constants.
Data set [8] has the same target. The experiment in a line: co-sedimentation; 0.5 μM Cin8-His, 0–2 μM microtubules, 1 mM ATP plus ATP regeneration system, low ionic strength (21 mM); fraction bound by NADH-coupled assay; apparent constants.
The target is the same in data set [9]. The data set can be described thus: co-sedimentation; 0.5 μM Cin8-His, 0–2 μM microtubules, 1 mM ATP plus ATP regeneration system, high ionic strength (88 mM); fraction bound by NADH-coupled assay; apparent constants. This is another data set of the same source.
For data set [10] the target is unchanged. The experiment in a line: co-sedimentation; 0.5 μM Cin8-His, 0–2 μM microtubules, 1 mM ATP plus ATP regeneration system, low ionic strength (21 mM); fraction bound by NADH-coupled assay; apparent constants. The source holds these as a separate data set.
For data set [11] the target is unchanged. The data set can be described thus: co-sedimentation; 2 μM kinesin, 0–4 μM paclitaxel-stabilised microtubules, no added nucleotide, high ionic strength (88 mM; ATPase buffer with 75 mM KCl), 298 K, 100,000 × g 30 min; supernatant and pellet by SDS-PAGE; apparent constants, fit to Equation 3.
Data set [12] shares this target. The data set can be described thus: co-sedimentation; 2 μM kinesin, 0–4 μM paclitaxel-stabilised microtubules, no added nucleotide, low ionic strength (21 mM; ATPase buffer with 7.5 mM KCl), 298 K, 100,000 × g 30 min; supernatant and pellet by SDS-PAGE; apparent constants, fit to Equation 3.
Data set [13] shares this target. The description is as above. The source holds these as a separate data set.
Data set [14] has the same target. The data set can be described thus: co-sedimentation; 2 μM kinesin, 0–4 μM paclitaxel-stabilised microtubules, no added nucleotide, high ionic strength (88 mM; ATPase buffer with 75 mM KCl), 298 K, 100,000 × g 30 min; supernatant and pellet by SDS-PAGE; apparent constants, fit to Equation 3. The source holds these as a separate data set.
Data set [15] has the same target. The experiment in a line: co-sedimentation; 4 μM Cin8-trx, 1 μM microtubules, 20 μM paclitaxel; ATPase buffer, without glycerol, plus DTT, PIPES pH 6.9, sodium phosphate pH 7.2, 10 mM NaCl or 10 mM potassium acetate.
Data set [16] has the same target. The experiment in a line: co-sedimentation; competition: 0–14 μM Cin8-trx added to 2 μM Eg5 and 2 μM microtubules, 60 min at 298 K before centrifugation, high ionic strength; fraction Eg5 bound fit to Equation 5 with Kd,Eg5 fixed; apparent.
Data set [17] has the same target. The data set can be described thus: co-sedimentation; competition: 0–14 μM Cin8-trx added to 2 μM Eg5 and 2 μM microtubules, 60 min at 298 K before centrifugation, low ionic strength; fraction Eg5 bound fit to Equation 5 with Kd,Eg5 fixed; apparent.
Where [18] appears, read: microtubule-stimulated (2 μM bovine brain microtubules, paclitaxel-stabilized).

B1: Cin8-His (Cin8 motor domain) (Saccharomyces cerevisiae S288C; DEL254-353/DEL32-69/INS253NNNNNSS) (protein)
chain: ISINTTGDTGITAQMNAKRYTVDKVFGPGASQDLIFDEVAGPLFQDFIKGYNCTVLVYGMTSTGKTYTMTGDEKLYNGELSDAAGIIPRVLLKLFDTLELQQNDYVVKCSFIELYNEELKDLLDSNSNGSSNTGFDGQFMKKLRIFDSSTANNTTSNSASSSRSNSRNSSPRSLNDLTPKAALLNNNNNSSSSRSHTIFTITLYKKHQDELFRISKMNLVDLAGSENINRSGALNQRAKEAGSINQSLLTLGRVINALVDKSGHIPFRESKLTRLLQDSLGGNTKTALIATISPAKVTSEETCSTLEYASKAKNIKNKPQLGSFIMKDILVKNITMELAKIKSDLLSTKSKEGIYMSQDHYKNLNSDLESYKN
notes: motor domain residues 70-535; N-terminal His6 and TEV site tags kept; expressed in E. coli B834(DE3); monomeric in solution
For the molecule B1, in [1] (microtubule-stimulated), the Km (as a rule, the concentration of substrate that gives half-maximal velocity) is 45 ± 4 µM and the kcat is recorded as 0.36 ± 0.22 s^−1 site^−1.

B2: Cin8-His (Cin8 motor domain) (Saccharomyces cerevisiae S288C) (protein)
chain: NEELNITVAVRCRGRNEREISMKSSVVVNVPDITGSKEISINTTGDTGITAQMNAKRYTVDKVFGPGASQDLIFDEVAGPLFQDFIKGYNCTVLVYGMTSTGKTYTMTGDEKLYNGELSDAAGIIPRVLLKLFDTLELQQNDYVVKCSFIELYNEELKDLLDSNSNGSSNTGFDGQFMKKLRIFDSSTANNTTSNSASSSRSNSRNSSPRSLNDLTPKAALLRKRLRTKSLPNTIKQQYQQQQAVNSRNNSSSNSGSTTNNASSNTNTNNGQRSSMAPNDQTNGIYIQNLQEFHITNAMEGLNLLQKGLKHRQVASTKMNDFSSRSHTIFTITLYKKHQDELFRISKMNLVDLAGSENINRSGALNQRAKEAGSINQSLLTLGRVINALVDKSGHIPFRESKLTRLLQDSLGGNTKTALIATISPAKVTSEETCSTLEYASKAKNIKNKPQLGSFIMKDILVKNIT
notes: as for B1
As for B2, in data set [1] (setting [18]), the Km is 29 ± 16 µM and the kcat came out at 0.38 ± 0.04 s^−1 site^−1.

B3: Cin8-His (S. cerevisiae kinesin-5 Cin8 motor domain, residues 70–535, with N-terminal His6 and TEV cleavage tags) (domain or fragment)
chain: ISINTTGDTGITAQMNAKRYTVDKVFGPGASQDLIFDEVAGPLFQDFIKGYNCTVLVYGMTSTGKTYTMTGDEKLYNGELSDAAGIIPRVLLKLFDTLELQQNDYVVKCSFIELYNEELKDLLDSNSNGSSNTGFDGQFMKKLRIFDSSTANNTTSNSASSSRSNSRNSSPRSLNDLTPKAALLRKRLRTKSLPNTIKQQYQQQQAVNSRNNSSSNSGSTTNNASSNTNTNNGQRSSMAPNDQTNGIYIQNLQEFHITNAMEGLNLLQKGLKHRQVASTKMNDFSSRSHTIFTITLYKKHQDELFRISKMNLVDLAGSENINRSGALNQRAKEAGSINQSLLTLGRVINALVDKSGHIPFRESKLTRLLQDSLGGNTKTALIATISPAKVTSEETCSTLEYASKAKNIKNKPQLGSFIMKDILVKNITMELAKIKSDLLSTKSKEGIYMSQDHYKNLNSDLESYKN
The molecule B3 came in with a K0.5 (Cin8 concentration at half-maximal light-scattering amplitude) in data set [2] of 0.27 µM. Besides, the koff (usually the first-order rate constant of dissociation) in data set [2] is 3.1 s⁻¹. Further, the figures for the on-rate (kon) in data set [2] and in data set [3] were 1e+06 M⁻¹ s⁻¹ and 1.1e+06 M⁻¹ s⁻¹, respectively. Moreover, the Kd in data set [4] worked out at 1.6 µM; in data set [5], 0.26 µM; in data set [7], 0.18 µM; in data set [8], 0.11 µM; in [9], 0.96 µM; in data set [10], 0.14 µM. In addition, the stoichiometry N (commonly the number of molecules, sites or subunits per partner or assembly) in data set [5] amounted to 3.1; in [7], 3; in data set [9], 6.1; in data set [10], 3.7. Moreover, in data set [6], the K0.5,MT of the microtubule-stimulated steady-state ATPase (NADH coupled assay), 21 mM ionic strength was determined as 0.08 µM. Besides, the K0.5,MT of the microtubule-stimulated steady-state ATPase (NADH coupled assay), 88 mM ionic strength in data set [6] stood at 1.8 µM.

B4: Cin8-trx (Cin8 motor domain, residues 70–535, fused to N-terminal thioredoxin (TrxA), His6, TEV cleavage and Arg9 tags) (domain or fragment)
chain: ISINTTGDTGITAQMNAKRYTVDKVFGPGASQDLIFDEVAGPLFQDFIKGYNCTVLVYGMTSTGKTYTMTGDEKLYNGELSDAAGIIPRVLLKLFDTLELQQNDYVVKCSFIELYNEELKDLLDSNSNGSSNTGFDGQFMKKLRIFDSSTANNTTSNSASSSRSNSRNSSPRSLNDLTPKAALLRKRLRTKSLPNTIKQQYQQQQAVNSRNNSSSNSGSTTNNASSNTNTNNGQRSSMAPNDQTNGIYIQNLQEFHITNAMEGLNLLQKGLKHRQVASTKMNDFSSRSHTIFTITLYKKHQDELFRISKMNLVDLAGSENINRSGALNQRAKEAGSINQSLLTLGRVINALVDKSGHIPFRESKLTRLLQDSLGGNTKTALIATISPAKVTSEETCSTLEYASKAKNIKNKPQLGSFIMKDILVKNITMELAKIKSDLLSTKSKEGIYMSQDHYKNLNSDLESYKN
B4: the stoichiometry N in data set [11] was 3 to 5; in data set [12], 5.1; in [14], 4; in data set [15] it was 4. The Kd was determined as 0.001 µM in data set [12]; 0.013 µM in data set [13]; 0.13 µM in data set [14]; 0.59 µM in data set [16]; 0.002 µM in data set [17].

Source of the values: paper PMC5582858, “The yeast kinesin-5 Cin8 interacts with the microtubule in a noncanonical manner” (The Journal of Biological Chemistry, 2017).
